Assay [1] concerns the target CR8071 lambda light chain L1 S122D_K129T_S176E_Y178E (designs 3951 and 3967, System C). Nature of the assay: SMCA: H1, L1, H2, L2 co-expressed, protein A, LC-MS.
Assay [2] shares this target. The assay is described as above. The source holds these as a separate data set.
For assay [3], the target named is CR8071 lambda light chain L1 Y178K (design 3957, System C). The assay is described as above.
Assay [4] concerns the target CR8071 lambda light chain L1 of design 2830 (E124K_Y178R). Put plainly: SMCA: H1, L1, H2, L2 co-expressed in CHO-3E7.
Assay [5] has as its target CR8071 lambda light chain L1 (S180E), designs 2816 and 2827. Nature of the assay: SMCA, System C, LC-MS.
Assay [6] shares this target. Nature of the assay: SMCA, System C.
In assay [7] the target is CR8071 lambda light chain L1, design 2892 (S176K_Y178K). Put plainly: SMCA: H1,L1,H2,L2 co-expressed, protein A, LC-MS.
For assay [8], the target named is CR8071 lambda light chain L1, design 2994 (E124Q_T131K). Nature of the assay: SMCA: H1,L1,H2,L2 co-expressed, protein A, LC-MS.
Assay [9] concerns the target CR8071 lambda light chain L1, design 3025 (E124Q_T131R). Nature of the assay: SMCA: H1,L1,H2,L2 co-expressed, protein A, LC-MS.
In assay [10] the target is CR8071 lambda light chain L1, design 3122 (V133D_Y178T). Nature of the assay: SMCA: H1,L1,H2,L2 co-expressed, protein A, LC-MS.
Assay [11] addresses CR8071 lambda light chain L1, design 3878 (K129T_S180E). Nature of the assay: SMCA: H1,L1,H2,L2 co-expressed, protein A, LC-MS.
Assay [12] has as its target CR8071 lambda light chain L1, design 4320 (T116F_K129T_V133D_S176F). Put plainly: SMCA: H1,L1,H2,L2 co-expressed, protein A, LC-MS.
The target of assay [13] is Pertuzumab light chain (kappa) V133G_S176D_T180E, HA-tagged. Nature of the assay: LCCA.
Assay [14] concerns the target Pertuzumab light chain (kappa) V133G_S176D_T178E, HA-tagged. Nature of the assay: LCCA.
In assay [15] the target is Pertuzumab light chain (kappa) V133G_S176D_T180E, HA-tagged. Nature of the assay: LCCA. The source holds these as a separate data set.
Assay [16] concerns the target Pertuzumab light chain (kappa) V133G_S176D_T178E, HA-tagged. Nature of the assay: LCCA. The source holds these as a separate data set.
Assay [17] concerns the target Pertuzumab light chain (kappa) V133G_S176D_T180E, HA-tagged. Put plainly: LCCA. The source holds these as a separate data set.
For assay [18], the target named is SGN-CD19a kappa light chain L2 Q124E_V133D_L135W (design 3972, Systems B and C). Put plainly: SMCA: H1, L1, H2, L2 co-expressed, protein A, LC-MS.
Assay [19] concerns the target SGN-CD19a kappa light chain L2 Q124E_V133D_T180D (design 3971, Systems B and C). The description is as above.
Assay [20] deals with SGN-CD19a kappa light chain L2 Q124E_V133D_L135W (design 3972, Systems B and C). Described as above. The source holds these as a separate data set.
Assay [21] addresses SGN-CD19a kappa light chain L2 Q124E_V133D_T180D (design 3971, Systems B and C). Described as above. The source holds these as a separate data set.
The target in assay [22] is SGN-CD19a kappa light chain L2 Q124E_V133D_T178E (design 3957, Systems B and C). Described as above.
The target is the same in assay [23]. The assay is described as above. The source holds these as a separate data set.
In assay [24] the target is SGN-CD19a kappa light chain L2 of design 2830 (T178E_T180E). Put plainly: SMCA: H1, L1, H2, L2 co-expressed in CHO-3E7.
Assay [25] addresses SGN-CD19a kappa light chain L2, design 3025 (S131D_V133G_T178F). Put plainly: SMCA: H1,L1,H2,L2 co-expressed, protein A, LC-MS.
Assay [26] shares this target. Put plainly: SMCA: H1,L1,H2,L2 co-expressed, protein A, LC-MS. This is another data set of the same source.
The target in assay [27] is SGN-CD19a kappa light chain L2, design 3122 (S176K_T178K). Put plainly: SMCA: H1,L1,H2,L2 co-expressed, protein A, LC-MS.
For assay [28] the target is unchanged. Nature of the assay: SMCA: H1,L1,H2,L2 co-expressed, protein A, LC-MS. This is another data set of the same source.
In assay [29] the target is SGN-CD19a kappa light chain L2, design 3878 (Q124R_Q160K_T178R). Put plainly: SMCA: H1,L1,H2,L2 co-expressed, protein A, LC-MS.
The target is the same in assay [30]. Nature of the assay: SMCA: H1,L1,H2,L2 co-expressed, protein A, LC-MS. The source holds these as a separate data set.
For assay [31], the target named is SGN-CD19a kappa light chain L2, design 4320 (Q124K_L135A_T178R). Nature of the assay: SMCA: H1,L1,H2,L2 co-expressed, protein A, LC-MS.
The target of assay [32] is SGN-CD19a kappa light chain L2, designs 2892 and 2994 (Q124E_V133D). Put plainly: SMCA: H1,L1,H2,L2 co-expressed, protein A, LC-MS.
Assay [33] has the same target. Put plainly: SMCA: H1,L1,H2,L2 co-expressed, protein A, LC-MS. This is another data set of the same source.
For assay [34] the target is unchanged. Put plainly: SMCA: H1,L1,H2,L2 co-expressed, protein A, LC-MS. This is another data set of the same source.
The target is the same in assay [35]. Nature of the assay: SMCA: H1,L1,H2,L2 co-expressed, protein A, LC-MS. The source holds these as a separate data set.

Like-named read-outs stand apart in the source and are kept apart here.

On to “CR8071 heavy chain H1 A125R_S188K (designs 3951 and 3967, System C)”, for which, in assay [1], the % H1L1 Pairing came to 97.5% and the Change in % H1L1 Pairing with respect to wild type was determined as 29.4%. Also, in assay [2], the % H1L1 Pairing turned out to be 96.7% and the Change in % H1L1 Pairing with respect to wild type is 28.6%.

“CR8071 heavy chain H1 K145T_S188E (design 3957, System C)”: in [3], the % H1L1 Pairing was determined as 87.2% and the Change in % H1L1 Pairing with respect to wild type is 38.8%.

With “CR8071 heavy chain H1 of design 2830 (L143E_K145T_Q179E), full-length with heterodimeric IgG1 Fc”, in [4], the % H1L1 Pairing worked out at 28% and the Change in % H1L1 Pairing with respect to wild type was -20.4%.

For the substance “CR8071 heavy chain H1, design 2816 (Q179K)”, the Change in % H1L1 Pairing with respect to wild type in [5] amounted to 17%. This substance also returned a % H1L1 Pairing in assay [6] of 99.3%.

Take “CR8071 heavy chain H1, design 2827 (S186R)”: in assay [5], the Change in % H1L1 Pairing with respect to wild type is 15.9%. In assay [6], this substance gave a % H1L1 Pairing of 98.2%.

Take “CR8071 heavy chain H1, design 2892 (K145T_V177D_S188D)”: in assay [7], the % H1L1 Pairing was determined as 41.5% and the Change in % H1L1 Pairing with respect to wild type is -6.9%.

“CR8071 heavy chain H1, design 2994 (L143E_K145T_Q179E)”: in assay [8], the % H1L1 Pairing worked out at 26.3% and the Change in % H1L1 Pairing with respect to wild type was -22.1%.

“CR8071 heavy chain H1, design 3025 (L143D_K145T)”: in assay [9], the % H1L1 Pairing worked out at 43.9% and the Change in % H1L1 Pairing with respect to wild type was -4.5%.

As to “CR8071 heavy chain H1, design 3122 (S186K_S188T)”, in assay [10], the % H1L1 Pairing is 65.8% and the Change in % H1L1 Pairing with respect to wild type was -16.5%.

As for “CR8071 heavy chain H1, design 3878 (Q179K)”, in [11], the % H1L1 Pairing amounted to 99.3% and the Change in % H1L1 Pairing with respect to wild type was found to be 17%.

“CR8071 heavy chain H1, design 4320 (L143K_F174G)”: in assay [12], the % H1L1 Pairing came to 96.6% and the Change in % H1L1 Pairing with respect to wild type came to 14.3%.

For the substance “Pertuzumab heavy chain Fab construct L124R_Q179K”, the H2L2:H2L1 normalized median scalar value ln(r1/f1) in assay [13] amounted to 0.63; in assay [14], 0.77; in assay [15], 0.95; in assay [16] it was 0.69; in [17], 0.97.

“Pertuzumab heavy chain Fab construct L124R_S186R”: the H2L2:H2L1 normalized median scalar value ln(r1/f1) in assay [13] amounted to 1.21; in assay [14], 1.04; in assay [15] it was 1.5; in assay [16] it was 1.18; in assay [17], 1.47.

For the substance “SGN-CD19a heavy chain H2 L143R (designs 3971 and 3972, Systems B and C)”, the % H2L2 Pairing is 99.7% in assay [18], 99.3% in assay [19], 99.8% in [20] and 99.8% in assay [21]. For the same substance, the Change in % H2L2 Pairing with respect to wild type in [18] worked out at 45.5%; in [19] it was 45.1%; in assay [20], 20.2%; in assay [21], 20.2%.

Regarding “SGN-CD19a heavy chain H2 L143R_S188K (design 3957, Systems B and C)”, in assay [22], the % H2L2 Pairing turned out to be 85.4% and the Change in % H2L2 Pairing with respect to wild type came to 31.2%. For the same substance, in assay [23], the % H2L2 Pairing worked out at 99.7% and the Change in % H2L2 Pairing with respect to wild type was found to be 20.1%.

With “SGN-CD19a heavy chain H2 of design 2830 (S186R), full-length with heterodimeric IgG1 Fc”, in [24], the % H2L2 Pairing is 99.6% and the Change in % H2L2 Pairing with respect to wild type amounted to 20%.

For “SGN-CD19a heavy chain H2, design 3025 (S188K)”, in [25], the % H2L2 Pairing was found to be 87.9% and the Change in % H2L2 Pairing with respect to wild type was 33.7%. Moreover, in assay [26], the % H2L2 Pairing turned out to be 99.7% and the Change in % H2L2 Pairing with respect to wild type was found to be 20.1%.

As for “SGN-CD19a heavy chain H2, design 3122 (K145T_V177D_S188D)”, in assay [27], the % H2L2 Pairing stood at 89.7% and the Change in % H2L2 Pairing with respect to wild type was 52.1%. Moreover, in assay [28], the % H2L2 Pairing is 99.8% and the Change in % H2L2 Pairing with respect to wild type stood at 39.9%.

As for “SGN-CD19a heavy chain H2, design 3878 (L143E_K145T_S188L)”, in assay [29], the % H2L2 Pairing amounted to 28.7% and the Change in % H2L2 Pairing with respect to wild type was -8.9%. In addition, in assay [30], the % H2L2 Pairing was 67.4% and the Change in % H2L2 Pairing with respect to wild type amounted to 7.5%.

Regarding “SGN-CD19a heavy chain H2, design 4320 (L143E_K145T_Q179E_V190F)”, in assay [31], the % H2L2 Pairing stood at 81.4% and the Change in % H2L2 Pairing with respect to wild type was 21.5%.

As to “SGN-CD19a heavy chain H2, designs 2892 and 2994 (L143K)”, the % H2L2 Pairing in assay [32] is 94.3%; in assay [33], 99.6%; in [34], 99.2%; in [35] it was 99.7%. For the same substance, the Change in % H2L2 Pairing with respect to wild type in assay [32] stood at 40.1%; in [33], 20%; in [34], 45%; in [35], 20.1%.

The record behind these values is patent US20190338048A1.
